{"source": "paper doi:10.1101/2023.06.26.546597", "about": "(bioRxiv, 2023)", "proteins": {"B1": {"name": "YisK with C-terminal histidine tag (enzyme, B. subtilis 168, UniProt O06724 1-301, looked up)", "chain": "MKFATGELYNRMFVGLIIDDEKIMDLQKAEKKLFELETIPGSLIECIAEGDKFVAHARQLAEWAKKPNDELGSFMYSLSEVKLHAPIPKPSKNIICIGKNYRDHAIEMGSEADIPEHPMVFTKSPVTVTGHGDIVKSHEEVTSQLDYEGELAVVIGKSGTRISKEDAYDHVFGYTIVNDITARDLQKRHKQFFIGKSLDTTCPMGPVLVHKSSIQEPERLKVETRVNGELRQSGSASDMIFSIPELIETLSKGMTLEAGDIIATGTPSGVGKGFTPPKFLRSGDKIDITIDPIGTLSNQIG"}}, "target": "the molecule itself", "experiment": "crystal structure"}
{"protein": "B1", "values": [{"measurement": "binding result", "result": "binds"}]}
